From publication PMC6424575 (Biochemistry, 2018)

How the values were obtained:
[1] = target: DEBS3 (bimodular protein of the 6-deoxyerythronolide B synthase) (Saccharopolyspora erythraea, UniProt Q03133); experiment: SEC-SAXS
DEBS module 3+TE = DEBS module 3+TE (Saccharopolyspora erythraea); experiment: ELISA

DEBS3 (bimodular protein of the 6-deoxyerythronolide B synthase), sequence (Q03133 whole entry): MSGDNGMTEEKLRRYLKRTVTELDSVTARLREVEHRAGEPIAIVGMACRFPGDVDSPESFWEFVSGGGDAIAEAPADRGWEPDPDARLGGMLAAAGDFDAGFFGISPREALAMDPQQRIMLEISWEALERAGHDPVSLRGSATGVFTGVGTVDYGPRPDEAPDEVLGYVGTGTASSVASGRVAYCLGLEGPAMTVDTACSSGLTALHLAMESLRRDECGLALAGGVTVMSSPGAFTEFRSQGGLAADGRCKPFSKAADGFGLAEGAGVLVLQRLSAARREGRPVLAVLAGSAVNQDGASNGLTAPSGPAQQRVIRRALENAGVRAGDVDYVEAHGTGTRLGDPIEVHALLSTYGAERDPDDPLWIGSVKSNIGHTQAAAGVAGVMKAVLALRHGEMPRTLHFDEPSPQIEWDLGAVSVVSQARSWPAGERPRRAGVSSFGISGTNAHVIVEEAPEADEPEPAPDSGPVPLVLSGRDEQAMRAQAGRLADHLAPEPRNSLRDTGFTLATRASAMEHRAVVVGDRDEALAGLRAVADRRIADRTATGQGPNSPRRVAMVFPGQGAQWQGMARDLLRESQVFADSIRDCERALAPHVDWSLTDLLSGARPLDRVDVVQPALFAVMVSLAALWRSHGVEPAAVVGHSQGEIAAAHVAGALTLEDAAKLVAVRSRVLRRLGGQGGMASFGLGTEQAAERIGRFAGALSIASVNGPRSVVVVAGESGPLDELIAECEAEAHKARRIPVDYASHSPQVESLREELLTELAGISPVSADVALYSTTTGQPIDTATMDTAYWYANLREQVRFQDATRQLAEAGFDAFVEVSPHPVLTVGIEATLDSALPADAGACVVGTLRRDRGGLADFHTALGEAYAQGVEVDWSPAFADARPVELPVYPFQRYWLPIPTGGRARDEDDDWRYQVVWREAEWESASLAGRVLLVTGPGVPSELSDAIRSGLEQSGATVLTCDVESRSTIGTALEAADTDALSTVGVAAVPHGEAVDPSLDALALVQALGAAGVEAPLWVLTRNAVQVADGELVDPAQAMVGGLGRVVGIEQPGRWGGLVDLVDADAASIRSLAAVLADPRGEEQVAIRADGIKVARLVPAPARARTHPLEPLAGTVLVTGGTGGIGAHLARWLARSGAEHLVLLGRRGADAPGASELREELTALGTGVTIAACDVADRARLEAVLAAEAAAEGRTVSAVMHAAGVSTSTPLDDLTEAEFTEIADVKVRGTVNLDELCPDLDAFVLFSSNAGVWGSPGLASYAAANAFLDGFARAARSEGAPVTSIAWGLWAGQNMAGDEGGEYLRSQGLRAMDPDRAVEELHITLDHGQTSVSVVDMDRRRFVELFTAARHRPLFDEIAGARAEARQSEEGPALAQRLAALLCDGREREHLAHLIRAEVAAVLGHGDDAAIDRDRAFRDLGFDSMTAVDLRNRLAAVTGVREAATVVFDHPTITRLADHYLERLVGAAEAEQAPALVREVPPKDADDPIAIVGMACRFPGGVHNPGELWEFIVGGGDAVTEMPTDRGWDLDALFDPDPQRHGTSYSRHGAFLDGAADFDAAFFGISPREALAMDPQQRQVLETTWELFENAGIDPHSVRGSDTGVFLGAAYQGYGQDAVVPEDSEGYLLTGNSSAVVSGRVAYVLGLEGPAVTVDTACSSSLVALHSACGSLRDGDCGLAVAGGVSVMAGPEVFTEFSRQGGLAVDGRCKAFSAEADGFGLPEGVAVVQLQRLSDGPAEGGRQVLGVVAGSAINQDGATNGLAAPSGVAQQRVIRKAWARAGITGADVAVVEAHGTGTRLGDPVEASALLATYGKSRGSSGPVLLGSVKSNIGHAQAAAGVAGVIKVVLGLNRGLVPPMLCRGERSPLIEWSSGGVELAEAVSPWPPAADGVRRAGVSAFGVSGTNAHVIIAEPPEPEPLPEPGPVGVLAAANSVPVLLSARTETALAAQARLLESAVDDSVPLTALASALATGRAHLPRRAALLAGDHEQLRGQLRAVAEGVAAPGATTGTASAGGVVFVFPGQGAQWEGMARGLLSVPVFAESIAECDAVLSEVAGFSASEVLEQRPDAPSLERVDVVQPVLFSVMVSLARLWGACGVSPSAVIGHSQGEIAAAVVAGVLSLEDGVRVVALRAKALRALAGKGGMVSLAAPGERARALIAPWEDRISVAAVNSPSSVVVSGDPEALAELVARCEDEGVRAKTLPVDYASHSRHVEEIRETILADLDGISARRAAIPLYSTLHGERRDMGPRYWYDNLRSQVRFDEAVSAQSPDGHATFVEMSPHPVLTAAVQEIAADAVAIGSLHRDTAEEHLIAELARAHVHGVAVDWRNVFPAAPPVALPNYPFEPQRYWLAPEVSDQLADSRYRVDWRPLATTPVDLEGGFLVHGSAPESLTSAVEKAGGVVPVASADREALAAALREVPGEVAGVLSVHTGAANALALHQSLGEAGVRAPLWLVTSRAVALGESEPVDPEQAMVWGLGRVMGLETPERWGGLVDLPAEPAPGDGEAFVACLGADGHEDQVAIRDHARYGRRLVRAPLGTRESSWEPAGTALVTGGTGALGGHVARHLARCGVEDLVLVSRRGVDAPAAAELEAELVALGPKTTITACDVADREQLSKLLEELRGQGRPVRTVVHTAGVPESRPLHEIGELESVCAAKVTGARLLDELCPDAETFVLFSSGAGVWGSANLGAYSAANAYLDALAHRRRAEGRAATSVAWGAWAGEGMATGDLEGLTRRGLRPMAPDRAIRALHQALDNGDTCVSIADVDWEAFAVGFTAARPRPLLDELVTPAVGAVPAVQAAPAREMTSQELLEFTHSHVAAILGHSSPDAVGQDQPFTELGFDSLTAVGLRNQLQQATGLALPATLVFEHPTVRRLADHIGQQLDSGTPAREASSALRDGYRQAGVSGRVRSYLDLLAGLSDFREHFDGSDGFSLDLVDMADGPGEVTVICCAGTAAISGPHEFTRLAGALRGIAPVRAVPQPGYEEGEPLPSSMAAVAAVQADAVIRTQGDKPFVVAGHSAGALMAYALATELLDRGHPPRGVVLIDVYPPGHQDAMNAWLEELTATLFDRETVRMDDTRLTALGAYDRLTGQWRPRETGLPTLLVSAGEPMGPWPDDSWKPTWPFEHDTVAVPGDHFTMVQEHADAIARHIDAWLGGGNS

B1: Fab 3A6 (Fab, V domains shown)
VH: QVQLQQWGAGLLKPSETLSLTCAVYGGSFSGYYWSWIRQPPGKGLEWIGEINHSGSTNYNPSLKSRVTISVDTSKNQFSLKLSSVTAADTAVYYCARGLGYSGSYYAPNWGQGTLVTVSS
VL: not shown
In the case of B1, the binding result [1] is reported as “binds” and the Kd (DEBS module 3+TE) is reported as 42 ± 12 nM.
